According to the supplement of paper PMC7877785:
± gives the uncertainty stated by the source.

Assay: self-splicing fitness, log relative to wild type (ln ratio); higher = more splicing; Tetrahymena group I intron in knt gene, E. coli kanamycin selection, DiMSum; sequences stand for … in CUCUCU…GGAGGGAAAAGUUAUCAGGCAUGCACCUGGUAGCUAGUCUUUAAACCAAUAGAUUGCAUCGGUUUAAAAGGCAAGACCGUCAAAUUGCGGGAAAGGGGUCAACAGCCGUUCAGUACCAAGUCUCAGGGGAAACUUUGAGAUGGCCUUGCAAAGGGUAUGGUAAUAAGCUGACGGACAUGGUCCUAACCACGCAGCCAAGUCCUAAGUCAACAGAUCUUCUGUUGAUAUGGAUGCAGUUCACAGACUAAAUGUCGGUCGGGGAAGAUGUAUUCUUCUCAUAAGAUAUAGUCGGACCUCUCCUUAAUGGGAGCUAGCGGAUGAAGUGAUGCAACACUGGAGCCGCUGGGAACUAAUUUGUAUGCGAAAGUAUAUUGAUUAGUUUUGGAGUACUCGUGGUCG
Procedure, shortened: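 Library with all eight P1ex-region intron nucleotides randomised, intron inside the knt kanamycin-resistance gene on pET-22b(+), in E. coli BL21(DE3). Cells grew overnight at 37°C or 30°C on LB agar with or without 25 μg/mL kanamycin (plus 100 μg/mL carbenicillin, 50 μM IPTG, 0.2% rhamnose), in six replicate transformations. Pooled colonies were amplicon-sequenced on Illumina HiSeq 2500. DiMSum fitness is the error-weighted combination of wild-type-normalised replicate fold changes, kanamycin versus none.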

| Sequence | self-splicing fitness (ln) (30 °C) | self-splicing fitness (ln) (37 °C) |
| --- | --- | --- |
| CGACAGCAAUAUUACGCUUU | -5.56 ± 0.41 | -2.05 ± 0.15 |
| CGACAGCAAUAUUACGGAAA | -1.98 ± 0.21 | -2.2 ± 0.18 |
| CGACAGCAAUAUUACGGAGG | -1.91 ± 0.086 | -1.21 ± 0.12 |
| CGACAGCAAUAUUACGGCAG | -0.376 ± 0.083 | 0.289 ± 0.094 |
| CGACAGCAAUAUUACGGCCU | -1.57 ± 0.13 | -0.3 ± 0.14 |
| CGACAGCAAUAUUACGGCUG | -3.32 ± 0.19 | -0.951 ± 0.16 |
| CGACAGCAAUAUUACGUAGU | -3.12 ± 0.099 | -2.11 ± 0.12 |
| CGACAGCAAUAUUACGUCAG | -2.38 ± 0.094 | -1.94 ± 0.12 |
| CGACAGCAAUAUUACGUCGA | -3.04 ± 0.18 | -2.51 ± 0.15 |
| CGACAGCAAUAUUACGUGCA | -1.57 ± 0.057 | -0.14 ± 0.07 |
| CGACAGCAAUAUUACGUUAU | -3.7 ± 0.13 | -2.23 ± 0.12 |
| CGAGAGCAAUAUUACGACAG | -2.82 ± 0.37 | -1.15 ± 0.32 |
| CGAGAGCAAUAUUACGAUGU | -3.97 ± 0.25 | -1.83 ± 0.19 |
| CGAGAGCAAUAUUACGAUUG | – | -2.09 ± 0.34 |
| CGAGAGCAAUAUUACGCAUU | -2.84 ± 0.24 | -2.33 ± 0.21 |
| CGAGAGCAAUAUUACGCUGU | – | -3.26 ± 0.38 |
| CGAGAGCAAUAUUACGGACA | -1.85 ± 0.28 | -3.4 ± 0.39 |
| CGAGAGCAAUAUUACGGAUG | -3.42 ± 0.33 | -1.83 ± 0.28 |
| CGAGAGCAAUAUUACGGCAG | -2 ± 0.18 | -1.33 ± 0.22 |
| CGAGAGCAAUAUUACGGGUU | – | -2.27 ± 0.5 |
| CGAGAGCAAUAUUACGGUCC | -2.23 ± 0.23 | – |
| CGAGAGCAAUAUUACGGUCG | -1.42 ± 0.34 | -2.28 ± 0.24 |
| CGAGAGCAAUAUUACGUACA | -1.64 ± 0.27 | -1.71 ± 0.42 |
| CGAGAGCAAUAUUACGUCAC | -4.62 ± 0.39 | -2.45 ± 0.3 |
| CGAGAGCAAUAUUACGUCAG | -2.31 ± 0.17 | -2.54 ± 0.21 |

| Sequence | self-splicing fitness (ln) (30 °C) | self-splicing fitness (ln) (37 °C) |
| --- | --- | --- |
| CGAGAGCAAUAUUACGUGAA | -3.24 ± 0.2 | -2.44 ± 0.29 |
| CGAGAGCAAUAUUACGUGCA | -3.22 ± 0.23 | -3.2 ± 0.43 |
| CGAGAGCAAUAUUACGUUCU | -3.16 ± 0.13 | -2.83 ± 0.17 |
| CGAGAGCAAUAUUACGUUGA | -2.79 ± 0.38 | – |
| CGAUAGCAAUAUUACGAAAA | -3.85 ± 0.48 | -2.7 ± 0.3 |
| CGAUAGCAAUAUUACGAUAG | -0.572 ± 0.089 | -0.275 ± 0.1 |
| CGAUAGCAAUAUUACGAUGG | -0.196 ± 0.12 | -0.185 ± 0.2 |
| CGAUAGCAAUAUUACGAUUA | -1.59 ± 0.13 | -0.77 ± 0.15 |
| CGAUAGCAAUAUUACGCCUG | -0.681 ± 0.15 | 0.308 ± 0.11 |
| CGAUAGCAAUAUUACGCGAC | -2.59 ± 0.32 | -1.35 ± 0.28 |
| CGAUAGCAAUAUUACGCGGG | -4.21 ± 0.31 | -2.42 ± 0.24 |
| CGAUAGCAAUAUUACGCGGU | -3.13 ± 0.27 | -1.94 ± 0.19 |
| CGAUAGCAAUAUUACGCUAU | -2.82 ± 0.19 | – |
| CGAUAGCAAUAUUACGCUUU | -3.56 ± 0.35 | -3.14 ± 0.34 |
| CGAUAGCAAUAUUACGGACC | -1.78 ± 0.36 | -1.7 ± 0.29 |
| CGAUAGCAAUAUUACGGCAC | -2.47 ± 0.33 | -1.49 ± 0.31 |
| CGAUAGCAAUAUUACGGCCA | -1.22 ± 0.12 | -0.957 ± 0.15 |
| CGAUAGCAAUAUUACGGGAG | -2.86 ± 0.24 | -2.39 ± 0.24 |
| CGAUAGCAAUAUUACGGGCG | -1.67 ± 0.12 | -0.602 ± 0.11 |
| CGAUAGCAAUAUUACGGGGA | – | -2.27 ± 0.28 |
| CGAUAGCAAUAUUACGGUAA | -3.58 ± 0.31 | -1.8 ± 0.27 |
| CGAUAGCAAUAUUACGGUAC | -3.93 ± 0.24 | -2.89 ± 0.25 |
| CGAUAGCAAUAUUACGGUGG | -1.03 ± 0.086 | -0.748 ± 0.09 |
| CGAUAGCAAUAUUACGUAAA | -2.6 ± 0.32 | -0.509 ± 0.26 |
| CGAUAGCAAUAUUACGUAGG | -0.695 ± 0.056 | -0.444 ± 0.068 |
